For two substances, Kd, restriction of the infectivity of the HIV-1 vector in CRFK cells expressing whole Mafa TRIMCyp2 Cyp K143E; partially rescued by 5 µM cyclosporine (orders of magnitude) and restriction of the infectivity of the HIV-2 vector in CRFK cells expressing whole Mafa TRIMCyp2 Cyp K143E; completely rescued by 5 µM cyclosporine (orders of magnitude) results are on record in paper PMC2924388.

pKd: −log10 of the molar value.

The target of test [1] is HIV-2 capsid N-terminal domain with an alanine inserted at position 88 (HIV-2 (ROD)). Put plainly: ITC; MicroCal ITC200; cyclophilin (typical concentration 1.4 mM) in the syringe, capsid (typical concentration 120 µM) in the cell; 50 mM KPO4 pH 7.4, 100 mM NaCl, 1 mM DTT; 15°C; one-state model. In general terms: ITC needs no label: the signal is the heat of the interaction.

For test [2], the target named is HIV-1 M-type (NL4.3) capsid N-terminal domain (HIV-1 M-type (NL4.3)) (UniProt P12493). Described as above.
Test [3] has the same target.
The target in test [4] is HIV-2 (ROD) capsid N-terminal domain (HIV-2 (ROD)).
For test [5] the target is unchanged. Put plainly: ITC; MicroCal ITC200; cyclophilin (typical concentration 1.4 mM) in the syringe, capsid (typical concentration 120 µM) in the cell; 50 mM KPO4 pH 7.4, 100 mM NaCl, 1 mM DTT; 15°C; one-state model.

For the substance “CypA domain of Macaca fascicularis TRIMCyp2 (Mafa TRIMCyp2) (domain or fragment)”, the pKd (usually the Kd on a negative log10 scale, so that one unit is a factor of ten) was 3.68 in test [1] and 4.92 in test [2].

Substance “CypA domain of Mafa TRIMCyp2 with Cyp K143E (K446E in TRIMCyp) (domain or fragment)” showed a restriction of the infectivity of the HIV-1 vector in CRFK cells expressing whole Mafa TRIMCyp2 Cyp K143E; partially rescued by 5 µM cyclosporine (orders of magnitude) in test [3] of 2. The restriction of the infectivity of the HIV-2 vector in CRFK cells expressing whole Mafa TRIMCyp2 Cyp K143E; completely rescued by 5 µM cyclosporine (orders of magnitude) in test [4] turned out to be 2. In addition, the pKd in test [1] is 5.05; in test [2], 4.92; in test [5] it was 4.89.
